Results: patent US20230348564A1, “ANTI-CANCER PROTEINS” (UNICHEM LABORATORIES LTD, priority 2020, published 2023)

Columns and labels:
[1] = tested on: KB (Human cervical carcinoma); assay: Calcein AM cytotoxicity assay; conditions: 48h
Procedure: (§1) All the cancer cell lines were procured from National Centre for Cell Science, Pune (India). The cell lines were maintained under conditions as described in Table 21 below. The cell lines were sub-cultured by trypsinization followed by splitting the cell suspension into fresh flasks and supplementing with fresh culture medium.
(§2) All the cell lines were grown in specified media at 37° C. with 95% Humidity and […].
(§3) The cells were trypsinized, counted by Trypan blue method in Neuebauer's Chamber and plated in wells of flat bottom 96-well plate (dark walled plate, flat bottom) at the density corresponding to 10×10^3 cells/well/180 μl medium.
(§4) Following overnight incubation, the cells were treated with test item (20 μL) at concentrations ranging from 2.5-80 μg/mL, so that the total volume in each well is 200 μL.
(§5) The cells were incubated with the test items or positive control for a time period of 48h. Following incubation, the cell cytotoxicity was estimated using Calcein AM Cell Viability Assay Kit from R&D systems (Cat No. 4892-010-K).
(§6) Fluorescence was measured at 485 nm (excitation/528 run (emission) spectra using Synergy HT micro plate reader.
(§7) Percentage cytotoxicity wrt untreated cells was calculated using formula:
(§8) Cytotoxicity=[(RFUuntreated−RFUsample)/RFUuntreated]*100
(§9) RFU: relative fluorescence units
(§10) IC50 value was calculated using Graph-Pad Prism version 4.01 software.

[2] = tested on: PBMCs (Peripheral blood mononuclear cells); assay: Calcein AM cytotoxicity assay; conditions: 48h
Procedure: as §1, §2, §3, §4, §5, §6, §7, §8, §9, §10

[3] = tested on: AGS (Human stomach adenocarcinoma); assay: Calcein AM cytotoxicity assay; conditions: 48h
Procedure: as §1, §2, §3, §4, §5, §6, §7, §8, §9, §10

[4] = tested on: THP-1 (Human acute monocytic leukemia); assay: Calcein AM cytotoxicity assay; conditions: 48h
Procedure: as §1, §2, §3, §4, §5, §6, §7, §8, §9, §10

[5] = tested on: MCF-10A (Human mammary epithelial cells); assay: Calcein AM cytotoxicity assay; conditions: 48h
Procedure: as §1, §2, §3, §4, §5, §6, §7, §8, §9, §10

[6] = tested on: MCF-7 (Human breast adenocarcinoma); assay: Calcein AM cytotoxicity assay; conditions: 48h
Procedure: as §1, §2, §3, §4, §5, §6, §7, §8, §9, §10

[7] = tested on: SiHa (Human cervix squamous cell carcinoma); assay: Calcein AM cytotoxicity assay; conditions: 48h
Procedure: as §1, §2, §3, §4, §5, §6, §7, §8, §9, §10

[8] = tested on: PA-1 (Human Ovary carcinoma); assay: Calcein AM cytotoxicity assay; conditions: 48h
Procedure: as §1, §2, §3, §4, §5, §6, §7, §8, §9, §10

MDA-MB-231 = assay: Annexin-V staining (flow cytometry); type: cell-based, Human; conditions: 24 h
Procedure: (§11) The cell lines were maintained in DMEM+10% FBS (heat inactivated) at 37° C. with 5% CO2, and 95% humidity. Antibiotics Penicillin (100 U/mL) and Streptomycin (100 μg/mL) were added to the medium.
(§12) The stock solution of recombinant lectin having the amino acid sequence of SEQ ID NO. […] Doxorubicin was used as positive control and stock solution was prepared in DMSO.
(§13) Cells were counted using hemocytometer and plated in culture plates at the density of 0.4×10^6 cells/well in DMEM+10% FBS in 6-well plates. Cells were incubated overnight to allow the cell recovery and exponential growth. Following overnight incubation, cells were treated with Lectin having the amino acid sequence of SEQ ID NO. 2 in DMEM+0% FBS at concentrations ranging from 2.5 μg/mL to 80 μg/mL. Untreated cells were included as Control group for sample. Cells treated with Doxorubicin were included as Positive Control group. DMSO treated cells were included as control group for Doxorubicin. After treatment, cells were incubated for a time period of 24 h.
(§14) Following incubation, the pro-apoptotic effect was estimated using Annexin assay kit as follows: Annexin reagent contains Annexin-V+7-AAD stain, which differentially labels apoptotic cells in different phases. Four populations of cells can be determined from the flow cytometric plots as follows: • a) Upper Left (UL)—7-AAD(+)/Annexin(−) or Necrotic cells • b) Upper Right (UR)—7-AAD(+)/Annexin(+) or Late apoptotic cells • c) Lower Left (LL)—7-AAD(−)/Annexin(−) or Viable/non-apoptotic cells • d) Lower Right (LR)—7-AAD(−)/Annexin(+) or Early apoptotic cells
(§15) Cells were gently harvested into pre-labeled sterile centrifuge tubes and centrifuged at 300×g for 5-7 min. Supernatant were discarded and the pellet was resuspended in 200 μl of fresh culture medium.
(§16) 100 μl of cell suspension was transferred into pre-labeled sterile centrifuge tubes.
(§17) 100 μl of Annexin-V reagent was added to each tube and incubated for 30 min at RT in dark.
(§18) Cells stained for Annexin-V were then transferred into 96-well plates and acquired on flow cytometer (Guava technologies). Percentage of cells in early apoptotic, late apoptotic and necrotic phase were determined.
(§19) Fold increase in apoptotic cells (treated with Test Items) was determined as compared to Control (untreated cells).

PANC-1 = assay: Annexin-V staining (flow cytometry); type: cell-based, Human; conditions: 24 h
Procedure: as §11, §12, §13, §14, §15, §16, §17, §18, §19

B1: SEQ ID NO. 2: recombinant lectin; variant of the S. rolfsii lectin amino acid sequence (reported as Rec-2 in WO 2010/095143) (protein)
chain: TYKITVRVYQTNPDAFFHPVEKTVWKYANGGTWTITDDQHVLTMGGSGTSGTLRFHADNGESFTATFGVHNYKRWCDIVTNLAADETGMVINQQYYSQKNREEARERQLSNYQVKNAKGRNFQIVYTEAEGNDLHANLIIG
modifications: In vitro synthesis
IC50 [1]: 18.4 µg/mL
IC50 [2]: >80 µg/mL
IC50 [3]: 42.6 µg/mL
IC50 [4]: >80 µg/mL
IC50 [5]: >80 µg/mL
IC50 [6]: >80 µg/mL
IC50 [7]: >80 µg/mL
IC50 [8]: 20.3 µg/mL
% Population of cells, LL Annex− 7AAD− Viable (MDA-MB-231; 2.5 μg/mL): 75.7%
% Population of cells, LR Annex+ 7AAD− Early apoptotic (MDA-MB-231; 2.5 μg/mL): 7.9%
% Population of cells, UL Annex− 7AAD+ Necrotic (MDA-MB-231; 2.5 μg/mL): 3.2%
% Population of cells, UR Annex+ 7AAD+ Late apoptotic (MDA-MB-231; 2.5 μg/mL): 13.2%
Fold increase (wrt control), LR Annex+ 7-AAD− (MDA-MB-231; 2.5 μg/mL): 15.8 fold
Fold increase (wrt control), UL Annex− 7-AAD+ (MDA-MB-231; 2.5 μg/mL): 4.6 fold
Fold increase (wrt control), UR Annex+ 7-AAD+ (MDA-MB-231; 2.5 μg/mL): 22.0 fold
% Population of cells, LL Annex− 7AAD− Viable (MDA-MB-231; 5 μg/mL): 72.3%
% Population of cells, LR Annex+ 7AAD− Early apoptotic (MDA-MB-231; 5 μg/mL): 7.0%
% Population of cells, UL Annex− 7AAD+ Necrotic (MDA-MB-231; 5 μg/mL): 12.5%
% Population of cells, UR Annex+ 7AAD+ Late apoptotic (MDA-MB-231; 5 μg/mL): 8.2%
Fold increase (wrt control), LR Annex+ 7-AAD− (MDA-MB-231; 5 μg/mL): 14.0 fold
Fold increase (wrt control), UL Annex− 7-AAD+ (MDA-MB-231; 5 μg/mL): 17.9 fold
Fold increase (wrt control), UR Annex+ 7-AAD+ (MDA-MB-231; 5 μg/mL): 13.7 fold
% Population of cells, LL Annex− 7AAD− Viable (MDA-MB-231; 10 μg/mL): 64.1%
% Population of cells, LR Annex+ 7AAD− Early apoptotic (MDA-MB-231; 10 μg/mL): 5.8%
% Population of cells, UL Annex− 7AAD+ Necrotic (MDA-MB-231; 10 μg/mL): 20.6%
% Population of cells, UR Annex+ 7AAD+ Late apoptotic (MDA-MB-231; 10 μg/mL): 9.5%
Fold increase (wrt control), LR Annex+ 7-AAD− (MDA-MB-231; 10 μg/mL): 11.6 fold
Fold increase (wrt control), UL Annex− 7-AAD+ (MDA-MB-231; 10 μg/mL): 29.4 fold
Fold increase (wrt control), UR Annex+ 7-AAD+ (MDA-MB-231; 10 μg/mL): 15.8 fold
% Population of cells, LL Annex− 7AAD− Viable (MDA-MB-231; 20 μg/mL): 58.5%
% Population of cells, LR Annex+ 7AAD− Early apoptotic (MDA-MB-231; 20 μg/mL): 2.9%
% Population of cells, UL Annex− 7AAD+ Necrotic (MDA-MB-231; 20 μg/mL): 32.7%
% Population of cells, UR Annex+ 7AAD+ Late apoptotic (MDA-MB-231; 20 μg/mL): 5.9%
Fold increase (wrt control), LR Annex+ 7-AAD− (MDA-MB-231; 20 μg/mL): 5.8 fold
Fold increase (wrt control), UL Annex− 7-AAD+ (MDA-MB-231; 20 μg/mL): 46.7 fold
Fold increase (wrt control), UR Annex+ 7-AAD+ (MDA-MB-231; 20 μg/mL): 9.8 fold
% Population of cells, LL Annex− 7AAD− Viable (MDA-MB-231; 80 μg/mL): 61.0%
% Population of cells, LR Annex+ 7AAD− Early apoptotic (MDA-MB-231; 80 μg/mL): 5.3%
% Population of cells, UL Annex− 7AAD+ Necrotic (MDA-MB-231; 80 μg/mL): 26.0%
% Population of cells, UR Annex+ 7AAD+ Late apoptotic (MDA-MB-231; 80 μg/mL): 7.7%
Fold increase (wrt control), LR Annex+ 7-AAD− (MDA-MB-231; 80 μg/mL): 10.6 fold
Fold increase (wrt control), UL Annex− 7-AAD+ (MDA-MB-231; 80 μg/mL): 37.1 fold
Fold increase (wrt control), UR Annex+ 7-AAD+ (MDA-MB-231; 80 μg/mL): 12.8 fold
% Population of cells, LL Annex− 7AAD− Viable (PANC-1; 2.5 μg/mL): 87.7%
% Population of cells, LR Annex+ 7AAD− Early apoptotic (PANC-1; 2.5 μg/mL): 0.5%
% Population of cells, UL Annex− 7AAD+ Necrotic (PANC-1; 2.5 μg/mL): 10.8%
% Population of cells, UR Annex+ 7AAD+ Late apoptotic (PANC-1; 2.5 μg/mL): 1.0%
Fold increase (wrt control), LR Annex+ 7-AAD− (PANC-1; 2.5 μg/mL): 5.0 fold
Fold increase (wrt control), UL Annex− 7-AAD+ (PANC-1; 2.5 μg/mL): 1.0 fold
Fold increase (wrt control), UR Annex+ 7-AAD+ (PANC-1; 2.5 μg/mL): 2.5 fold
% Population of cells, LL Annex− 7AAD− Viable (PANC-1; 5 μg/mL): 81.3%
% Population of cells, LR Annex+ 7AAD− Early apoptotic (PANC-1; 5 μg/mL): 0.4%
% Population of cells, UL Annex− 7AAD+ Necrotic (PANC-1; 5 μg/mL): 15.5%
% Population of cells, UR Annex+ 7AAD+ Late apoptotic (PANC-1; 5 μg/mL): 2.8%
Fold increase (wrt control), LR Annex+ 7-AAD− (PANC-1; 5 μg/mL): 4.0 fold
Fold increase (wrt control), UL Annex− 7-AAD+ (PANC-1; 5 μg/mL): 1.5 fold
Fold increase (wrt control), UR Annex+ 7-AAD+ (PANC-1; 5 μg/mL): 7.0 fold
% Population of cells, LL Annex− 7AAD− Viable (PANC-1; 10 μg/mL): 78.7%
% Population of cells, LR Annex+ 7AAD− Early apoptotic (PANC-1; 10 μg/mL): 0.0%
% Population of cells, UL Annex− 7AAD+ Necrotic (PANC-1; 10 μg/mL): 20.8%
% Population of cells, UR Annex+ 7AAD+ Late apoptotic (PANC-1; 10 μg/mL): 0.4%
Fold increase (wrt control), UL Annex− 7-AAD+ (PANC-1; 10 μg/mL): 2.0 fold
Fold increase (wrt control), UR Annex+ 7-AAD+ (PANC-1; 10 μg/mL): 1.0 fold
% Population of cells, LL Annex− 7AAD− Viable (PANC-1; 20 μg/mL): 71.5%
% Population of cells, LR Annex+ 7AAD− Early apoptotic (PANC-1; 20 μg/mL): 0.0%
% Population of cells, UL Annex− 7AAD+ Necrotic (PANC-1; 20 μg/mL): 28.1%
% Population of cells, UR Annex+ 7AAD+ Late apoptotic (PANC-1; 20 μg/mL): 0.4%
Fold increase (wrt control), UL Annex− 7-AAD+ (PANC-1; 20 μg/mL): 2.7 fold
Fold increase (wrt control), UR Annex+ 7-AAD+ (PANC-1; 20 μg/mL): 1.0 fold
% Population of cells, LL Annex− 7AAD− Viable (PANC-1; 80 μg/mL): 72.8%
% Population of cells, LR Annex+ 7AAD− Early apoptotic (PANC-1; 80 μg/mL): 0.0%
% Population of cells, UL Annex− 7AAD+ Necrotic (PANC-1; 80 μg/mL): 26.7%
% Population of cells, UR Annex+ 7AAD+ Late apoptotic (PANC-1; 80 μg/mL): 0.5%
Fold increase (wrt control), UL Annex− 7-AAD+ (PANC-1; 80 μg/mL): 2.6 fold
Fold increase (wrt control), UR Annex+ 7-AAD+ (PANC-1; 80 μg/mL): 1.3 fold
